The values that follow come from patent publication US20240270813A1 (UNIVERSITY OF PITTSBURGH OF THE COMMONWEALTH SYSTEM OF …, published 2024).

Several values for one entry are separate records, joined by “and”; a condition that tells them apart may be missing. Equal entries are not always repeated. Some results are limits rather than exact numbers.

Sequences and labels used below:
T1: minor histocompatibility antigen HA-1, immunogenic H variant peptide on HLA-A*02:01 (human)
T1 peptide: VLHDDLLEA

B1: TCR D (TCR, V domains shown)
V domain 1: AQSVAQPEDQVNVAEGNPLTVKCTYSVSGNPYLFWYVQYPNRGLQFLLKYITGDNLVKGSYGFEAEFNKSQTSFHLKKPSALVSDSALYFCAVRAPTSGTYKYIFGTGTRLKVLA
V domain 2: DTGVSQDPRHKITKRGQNVTFRCDPISEHNRLYWYRQTLGQGPEFLTYFQNEAQLEKSRLLSDRFSAERPKGSFSTLEIQRTEQGDSAMYLCASSLVSGNEQFFGPGTRLTVLE
B2: TCR E (TCR, V domains shown)
V domain 1: AQSVAQPEDQVNVAEGNPLTVKCTYSVSGNPYLFWYVQYPNRGLQFLLKYITGDNLVKGSYGFEAEFNKSQTSFHLKKPSALVSDSALYFCAVRGPTSGTYKYIFGTGTRLKVLA
V domain 2: DTGVSQDPRHKITKRGQNVTFRCDPISEHNRLYWYRQTLGQGPEFLTYFQNEAQLEKSRLLSDRFSAERPKGSFSTLEIQRTEQGDSAMYLCASSLVSGNEQFFGPGTRLTVLE
B3: TCR A (TCR, V domains shown)
V domain 1: AQSVAQPEDQVNVAEGNPLTVKCTYSVSGNPYLFWYVQYPNRGLQFLLKYITGDNLVKGSYGFEAEFNKSQTSFHLKKPSALVSDSALYFCAVRGGSYKYIFGTGTRLKVLA
V domain 2: DTGVSQDPRHKITKRGQNVTFRCDPISEHNRLYWYRQTLGQGPEFLTYFQNEAQLEKSRLLSDRFSAERPKGSFSTLEIQRTEQGDSAMYLCASTPGTVYNEQFFGPGTRLTVLE
B4: TCR AJ (TCR, V domains shown)
V domain 1: EDQVTQSPEALRLQEGESSSLNCSYTVSGLRGLFWYRQDPGKGPEFLFTLYSAGEEKEKERLKATLTKKESFLHITAPKPEDSATYLCAVHSNAGGTSYGKLTFGQGTILTVHP
V domain 2: DAGVTQSPTHLIKTRGQHVTLRCSPISGHKSVSWYQQVLGQGPQFIFQYYEKEERGRGNFPDRFSARQFPNYSSELNVNALLLGDSALYLCASSADRGSPLHFGNGTRLTVTE
B5: TCR V (TCR, V domains shown)
V domain 1: AQTVTQSQPEMSVQEAETVTLSCTYDTSENNYYLFWYKQPPSRQMILVIRQEAYKQQNATENRFSVNFQKAAKSFSLKISDSQLGDTAMYFCALYSGAGSYQLTFGKGTKLSVIP
V domain 2: DTGVSQDPRHKITKRGQNVTFRCDPISEHNRLYWYRQTLGQGPEFLTYFQNEAQLEKSRLLSDRFSAERPKGSFSTLEIQRTEQGDSAMYLCASSLAAGMNTEAFFGQGTRLTVVE
B6: TCR Y (TCR, V domains shown)
V domain 1: SQQGEEDPQALSIQEGENATMNCSYKTSINNLQWYRQNSGRGLVHLILIRSNEREKHSGRLRVTLDTSKKSSSLLITASRAADTASYFCATAYSGGGADGLTFGKGTHLIIQP
V domain 2: DTGVSQNPRHKITKRGQNVTFRCDPISEHNRLYWYRQTLGQGPEFLTYFQNEAQLEKSRLLSDRFSAERPKGSFSTLEIQRTEQGDSAMYLCASSLIRAEKLFFGSGTQLSVLE
B7: TCR AD (TCR, V domains shown)
V domain 1: SQQGEEDPQALSIQEGENATMNCSYKTSINNLQWYRQNSGRGLVHLILIRSNEREKHSGRLRVTLDTSKKSSSLLITASRAADTASYFCATVPTDYMYSGGGADGLTFGKGTHLIIQP
V domain 2: DTGVSQNPRHKITKRGQNVTFRCDPISEHNRLYWYRQTLGQGPEFLTYFQNEAQLEKSRLLSDRFSAERPKGSFSTLEIQRTEQGDSAMYLCASSLVRLDGYTFGSGTRLTVVE
B8: TCR W (TCR, V domains shown)
V domain 1: AQSVAQPEDQVNVAEGNPLTVKCTYSVSGNPYLFWYVQYPNRGLQFLLKYITGDNLVKGSYGFEAEFNKSQTSFHLKKPSALVSDSALYFCAVRDPTSGTYKYIFGTGTRLKVLA
V domain 2: DTGVSQDPRHKITKRGQNVTFRCDPISEHNRLYWYRQTLGQGPEFLTYFQNEAQLEKSRLLSDRFSAERPKGSFSTLEIQRTEQGDSAMYLCASSLVQGNEQFFGPGTRLTVLE
B9: TCR X (TCR, V domains shown)
V domain 1: GENVEQHPSTLSVQEGDSAVIKCTYSDSASNYFPWYKQELGKRPQLIIDIRSNVGEKKDQRIAVTLNKTAKHFSLHITETQPEDSAVYFCVVLGGAGNMLTFGGGTRLMVKP
V domain 2: DTGVSQDPRHKITKRGQNVTFRCDPISEHNRLYWYRQTLGQGPEFLTYFQNEAQLEKSRLLSDRFSAERPKGSFSTLEIQRTEQGDSAMYLCASSLTVSDGYTFGSGTRLTVVE
B10: TCR Z (TCR, V domains shown)
V domain 1: QQVMQIPQYQHVQEGEDFTTYCNSSTTLSNIQWYKQRPGGHPVFLIQLVKSGEVKKQKRLTFQFGEAKKNSSLHITATQTTDVGTYFCAGPKGNTPLVFGKGTRLSVIA
V domain 2: DTGVSQDPRHKITKRGQNVTFRCDPISEHNRLYWYRQTLGQGPEFLTYFQNEAQLEKSRLLSDRFSAERPKGSFSTLEIQRTEQGDSAMYLCASSLTVSYEQYFGPGTRLTVTE
B11: TCR AC (TCR, V domains shown)
V domain 1: SQQGEEDPQALSIQEGENATMNCSYKTSINNLQWYRQNSGRGLVHLILIRSNEREKHSGRLRVTLDTSKKSSSLLITASRAADTASYFCAKNDMRFGAGTRLTVKP
V domain 2: DTGVSQNPRHKITKRGQNVTFRCDPISEHNRLYWYRQTLGQGPEFLTYFQNEAQLEKSRLLSDRFSAERPKGSFSTLEIQRTEQGDSAMYLCASSLLVGETQYFGPGTRLLVLE
B12: TCR AA (TCR, V domains shown)
V domain 1: QQQVKQSPQSLIVQKGGISIINCAYENTAFDYFPWYQQFPGKGPALLIAIRPDVSEKKEGRFTISFNKSAKQFSLHIMDSQPGDSATYFCAASSPGTYKYIFGTGTRLKVLA
V domain 2: DTGVSQDPRHKITKRGQNVTFRCDPISEHNRLYWYRQTLGQGPEFLTYFQNEAQLEKSRLLSDRFSAERPKGSFSTLEIQRTEQGDSAMYLCASSLLKNTEAFFGQGTRLTVVE
B13: TCR AB (TCR, V domains shown)
V domain 1: AQSVAQPEDQVNVAEGNPLTVKCTYSVSGNPYLFWYVQYPNRGLQFLLKYITGDNLVKGSYGFEAEFNKSQTSFHLKKPSALVSDSALYFCAVRVPTGGYQKVTFGIGTKLQVIP
V domain 2: DTGVSQNPRHKITKRGQNVTFRCDPISEHNRLYWYRQTLGQGPEFLTYFQNEAQLEKSRLLSDRFSAERPKGSFSTLEIQRTEQGDSAMYLCASKLTDTQYFGPGTRLTVLE
B14: TCR AJ (TCR, V domains shown)
Valpha: EDQVTQSPEALRLQEGESSSLNCSYTVSGLRGLFWYRQDPGKGPEFLFTLYSAGEEKEKERLKATLTKKESFLHITAPKPEDSATYLCAVHSNAGGTSYGKLTFGQGTILTVHP
Vbeta: DAGVTQSPTHLIKTRGQHVTLRCSPISGHKSVSWYQQVLGQGPQFIFQYYEKEERGRGNFPDRFSARQFPNYSSELNVNALLLGDSALYLCASSADRGSPLHFGNGTRLTVT
B15: TCR Z (TCR, V domains shown)
Valpha: QQVMQIPQYQHVQEGEDFTTYCNSSTTLSNIQWYKQRPGGHPVFLIQLVKSGEVKKQKRLTFQFGEAKKNSSLHITATQTTDVGTYFCAGPKGNTPLVFGKGTRLSVIA
Vbeta: DTGVSQDPRHKITKRGQNVTFRCDPISEHNRLYWYRQTLGQGPEFLTYFQNEAQLEKSRLLSDRFSAERPKGSFSTLEIQRTEQGDSAMYLCASSLTVSYEQYFGPGTRLTVT
B16: TCR AA (TCR, V domains shown)
Valpha: QQQVKQSPQSLIVQKGGISIINCAYENTAFDYFPWYQQFPGKGPALLIAIRPDVSEKKEGRFTISFNKSAKQFSLHIMDSQPGDSATYFCAASSPGTYKYIFGTGTRLKVLA
Vbeta: DTGVSQDPRHKITKRGQNVTFRCDPISEHNRLYWYRQTLGQGPEFLTYFQNEAQLEKSRLLSDRFSAERPKGSFSTLEIQRTEQGDSAMYLCASSLLKNTEAFFGQGTRLTVV
B17: TCR Y (TCR, V domains shown)
Valpha: SQQGEEDPQALSIQEGENATMNCSYKTSINNLQWYRQNSGRGLVHLILIRSNEREKHSGRLRVTLDTSKKSSSLLITASRAADTASYFCATAYSGGGADGLTFGKGTHLIIQP
Vbeta: DTGVSQNPRHKITKRGQNVTFRCDPISEHNRLYWYRQTLGQGPEFLTYFQNEAQLEKSRLLSDRFSAERPKGSFSTLEIQRTEQGDSAMYLCASSLIRAEKLFFGSGTQLSVL
B18: TCR AC (TCR, V domains shown)
Valpha: SQQGEEDPQALSIQEGENATMNCSYKTSINNLQWYRQNSGRGLVHLILIRSNEREKHSGRLRVTLDTSKKSSSLLITASRAADTASYFCAKNDMRFGAGTRLTVKP
Vbeta: DTGVSQNPRHKITKRGQNVTFRCDPISEHNRLYWYRQTLGQGPEFLTYFQNEAQLEKSRLLSDRFSAERPKGSFSTLEIQRTEQGDSAMYLCASSLLVGETQYFGPGTRLLVL
B19: TCR AD (TCR, V domains shown)
Valpha: SQQGEEDPQALSIQEGENATMNCSYKTSINNLQWYRQNSGRGLVHLILIRSNEREKHSGRLRVTLDTSKKSSSLLITASRAADTASYFCATVPTDYMYSGGGADGLTFGKGTHLIIQP
Vbeta: DTGVSQNPRHKITKRGQNVTFRCDPISEHNRLYWYRQTLGQGPEFLTYFQNEAQLEKSRLLSDRFSAERPKGSFSTLEIQRTEQGDSAMYLCASSLVRLDGYTFGSGTRLTVV
B20: TCR AB (TCR, V domains shown)
Valpha: AQSVAQPEDQVNVAEGNPLTVKCTYSVSGNPYLFWYVQYPNRGLQFLLKYITGDNLVKGSYGFEAEFNKSQTSFHLKKPSALVSDSALYFCAVRVPTGGYQKVTFGIGTKLQVIP
Vbeta: DTGVSQNPRHKITKRGQNVTFRCDPISEHNRLYWYRQTLGQGPEFLTYFQNEAQLEKSRLLSDRFSAERPKGSFSTLEIQRTEQGDSAMYLCASKLTDTQYFGPGTRLTVL

The target of one assay is T2, HA-1 “H” peptide (…) presented by HLA-A*02:01 on antigen presenting cells (human). The assay is described as follows: cell-based or functional assay.
In the case of B1, the “EC50 for CD69 Expression” value is < 10 nM and < 10 ng/mL. The same measure, in the same setting: in the case of B2 it was < 10 ng/mL and < 10 nM; in that of B3, < 10 ng/mL and < 10 nM.

Another assay addresses T2, HA-1 “H” peptide (…) presented by …. Kind of assay: cell-based or functional assay. The source holds these as a separate data set.
Regarding B4, the “EC50 values for CD69 Expression” value came out at 5 ng/mL. On to B5, for which the “EC50 values for CD69 Expression” value was found to be 125 ng/mL. Take B6: the “EC50 values for CD69 Expression” value came to 10.8 ng/mL.

As for B7, the “EC50 values for CD69 Expression” value amounted to 4.9 ng/mL. B8: the “EC50 values for CD69 Expression” value came out at 7.18 ng/mL. On the same count and under the same terms, to B9 belongs 23.6 ng/mL; to B10, 1.5 ng/mL; to B11, 0.9 ng/mL. Same read-out and setting: to B12 belongs 1.1 ng/mL; to B13, 40.2 ng/mL.

For a further assay, the target named is T1, minor histocompatibility antigen HA-1, …. Kind of assay: multimer staining.
On to B14, for which the binding result was “recognises”. For B15, the binding result is listed as “recognises”.

On to B16, for which the binding result was “recognises”.

For the molecule B17, the binding result is given as “recognises”.

As for B18, the binding result was “recognises”. Same read-out and setting: to B19 belongs “recognises”; to B20, “recognises”.
